Data published in patent publication US11541125B2, “Noncrushable pill formulations” (THE REGENTS OF THE UNIVERSITY OF CALIFORNIA, priority 2016, dated 2023).
Read-outs that look alike come from different tables or passages of the source. Square brackets hold non-standard residues; d marks the D form. Side chains are listed from the residue outwards. Peptide text beside a SMILES is read from it. * marks the point of attachment. ξ: configuration not given here. X2 = CN(CCN*)C(=S)Oc1ccc2c3c1O[C@H]1C(=O)CC[C@@]4(O)[C@@H](C2)N(CC2CC2)CC[C@]314; X1 = CN(CCN*)C(=O)Oc1ccc2c3c1OC1C(=O)CCC4(O)C(C2)N(CC2CC2)CCC314; X4 = CN(CCN*)C(=O)Oc1ccc([N+](=O)[O-])cc1; Trt = c1ccc(C(c2ccccc2)(c2ccccc2)*)cc1; ξF = NC(Cc1ccccc1)C(=O)O; Boc = CC(C)(C)OC(=O)*; ξK = NCCCCC(N)C(=O)O; ξC = NC(CS)C(=O)O; ξA = CC(N)C(=O)O

Key:
[1] = Experimental: In order to determine the stability of the enzymatically cleavable covalent linkage between the dual-enzyme responsive peptide and Naltrexone, the drug conjugates (below) were synthesized and subjected to a range of different pH buffers that were chosen to emulate the pH range of typical household chemicals (pH 2-10).
The stabilities of these linkages were assessed by HPLC by monitoring the relative amount of Naltrexone versus the intact peptide-Naltrexone conjugate.

[2] = system: trypsin and/or chymotrypsin; experiment: pNA release assay (absorbance at 405 nm); format: biochemical; conditions: 2 mM, incubated with trypsin and/or chymotrypsin, 90 minutes, 37° C.
Experimental: A stock solution of the CAAK(F)-diamino-pNA was prepared in dimethyl sulfoxide (DMSO) to produce a 16.0 mg/mL solution. A 7.5 mg/mL stock solution of the trypsin was prepared in 50 mM NH4HCO3 buffer (pH=8.05). A 7.5 mg/mL stock solution of chymotrypsin was prepared in 50 mM NH4HCO3 buffer (pH=8.05).
A 96 well plate was used for monitoring the solutions at 405 nm using a plate reader. 20 μL of the peptide was combined with 62.0/66.6 μL of no enzyme, trypsin only, chymotrypsin only, or with both enzymes respectively. All solutions were diluted to a total volume of 200 μL using 50 mM NH4HCO3 (pH=8.05). Blanks were prepared by combining the enzymes with DMSO/buffer and their absorbances were subtracted from the cleavage conditions. Additionally, the residual signal from the peptide in the presence of no enzymes was also used as a blank and subtracted out from enzymatic conditions.

[3] = conjugate sample, no pH buffer named

Structure (SMILES): CC(=O)NC(CSC(c1ccccc1)(c1ccccc1)c1ccccc1)C(=O)NC(C)C(=O)NC(C)C(=O)NC(CCCCNC(=O)C(Cc1ccccc1)NC(=O)OC(C)(C)C)C(=O)NCCN(C)C(=O)Oc1ccc2c3c1OC1C(=O)CCC4(O)C(C2)N(CC2CC2)CCC314 (centres unmarked) [NPC] (Ac-C(Trt)AAK([Phe-Boc])-X1; configuration not given here)
- stability over the entire pH range ([1]; HPLC, pH buffers): very good stability
- Percent Degradation, t = 0.5 hr [1, 3]: 0%
- Percent Degradation, t = 24 hr [1, 3]: 0%
- Percent Degradation, t = 0.5 hr ([1]; in pH 2): 6.00%
- Percent Degradation, t = 0.5 hr ([1]; in pH 4): 3.50%
- Percent Degradation, t = 0.5 hr ([1]; in pH 7): 1.50%

Structure (SMILES): CC(=O)NC(CS)C(=O)NC(C)C(=O)NC(C)C(=O)NC(CCCCNC(=O)C(N)Cc1ccccc1)C(=O)NCCN(C)C(=S)Oc1ccc2c3c1O[C@H]1C(=O)CC[C@@]4(O)[C@@H](C2)N(CC2CC2)CC[C@]314 (some centres unmarked) [NPT] (Ac-[ξC][ξA][ξA][ξK](ξF)-X2)
- stability of the linkage relative to the other linkers ([1]; HPLC, Naltrexone versus intact conjugate, pH buffers): more stable than the carbamate linker
- Percent Degradation, t = 0.5 hr [1, 3]: 0.51%
- Percent Degradation, t = 24 hr [1, 3]: 2.90%
- Percent Degradation, t = 24 hr ([1]; in pH 2): 4.10%

Structure (SMILES): CC(=O)NC(CS)C(=O)NC(C)C(=O)NC(C)C(=O)NC(CCCCNC(=O)C(N)Cc1ccccc1)C(=O)NCCN(C)C(=O)Oc1ccc([N+](=O)[O-])cc1 (centres unmarked) [CAAK(F)-diamino-pNA] (Ac-CAAK(Phe)-X4; configuration not given here)
- theoretical pNA released [2]: 55%
